This note sets out measurements from paper PMC4650670 (Scientific Reports, 2015).

The target of this assay is human cytoskeletal actin, filamentous (F-actin; β- and γ-actins) (human, UniProt P60709 1-375; P63261 1-375). Nature of the assay: ITC. The note with it: both partners purified.

B1: VopV_(rep1) (residues 361-428 of the type III secretion effector VopV) (domain or fragment)
chain: WPEVKPAHRLITTSGNAKIDGNPGYRNARVDVDGQTVGYTRNERGGSQPQSSGVHTLQGSQQPSVEPS
As to B1, the affinity, expressed as Kd, was 54.4 nM. That is a double-digit nanomolar value.
